The results in this text go back to publication PMC8144298.

This data set deals with CsrA-3xFLAG (Escherichia coli) (UniProt P69913). Put plainly: competition. Conditions: competitor conc. that fully displaces labeled RrBshort (120 pM) from 200 nM CsrA; CsrA EMSA: 100 mM KCl, 10 mM MgCl2, 2 mM DTT, 7.5% glycerol, 2 ng total yeast RNA, 120 pM RNA, 10 min 37 C, 8% native PAGE in 1x TBE (pH not stated); Hfq EMSA: …. For orientation: In EMSA bound probe runs differently from free probe, usually more slowly.
Sequence of CsrA-3xFLAG (Escherichia coli) (P69913 whole entry): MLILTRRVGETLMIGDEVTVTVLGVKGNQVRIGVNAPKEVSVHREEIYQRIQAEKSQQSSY

CsrB registered a binding signal of 3.13 nM.
